Assay [1] concerns the target hyperstable HIV-1 cores (affinity-purified), as used for TRIM5α binding and imaging (HIV-1 (NL4-3)). Kind of assay: co-sedimentation. As to conditions: scale: CA per TRIM5α_(AGMpyg).
In assay [2] the target is hyperstable HIV-1 CA_(A14C,E45C) cores (HIV-1 (NL4-3)). Kind of assay: cross-linking.
The target of assay [3] is truncated TRIM5α_(AGMpyg) that lacked the SPRY domain (African green monkey (Chlorocebus pygerythrus)). Kind of assay: SEC; final gel filtration step, HiLoad 16/600 Superdex 200 in 20 mM CHES, 100 nM ZnCl2, 1 mM TCEP, pH 10.0, 4°C; oligomer judged from retention time. In general terms: In gel filtration, larger molecules generally elute earlier.

Experimental findings from paper PMC4936896 are described below.

In assay [1], “African green monkey TRIM5α (Chlorocebus pygerythrus) (from UniProt Q5C8U4 1-515) (natural protein)” showed a stoichiometry N of 7.

In turn, “hyperstable HIV-1 CA_(A14C,E45C) cores (complex)” registered a stoichiometry N in assay [2] of 6.

In assay [3], “truncated TRIM5α_(AGMpyg) that lacked the SPRY domain (domain or fragment)” showed a stoichiometry N of 2.

What is called stoichiometry N is the number of molecules, sites or subunits per partner or assembly.
